In patent EP4786492A1:
Changes are numbered by the printed parent chain.

B1: Hab015VL4VH1a-hFc (scFv, part only; not given: scFv linker and human IgG1 Fc, V domains shown, not shown: another chain or arm of the molecule; a dimerising Fc or GST; small tags and cut ends)
VL: NIVLTQSPATLSLSPGERATLSCKASENVGTYVSWFQQKPGQSPRLLIYGASNRYTGIPARFSGSGSGTDFTLTISSLEPEDFAVYYCGQFYSFPSTFGGGTKVEIK
VH: EVQLVESGGGLVKPGGSLRLSCAASGITFSNFWMNWVRQAPGKGLEWVGQIRLKSDDYATHYAESVKGRFTISREDSKNTVYLQMNSLKTEDTAVYYCTTGYYFDYWGQGTTVTVSS
B2: Hab015VL5VH1a-hFc (scFv, part only; not given: scFv linker and human IgG1 Fc, V domains shown, not shown: another chain or arm of the molecule; a dimerising Fc or GST; small tags and cut ends)
VL: NIQMTQSPSSLSASVGDRVTITCKASENVGTYVSWYQQKPGKSPKLLIYGASNRYTGVPSRFSGSGSGTDFTLTISSLQPEDFATYYCGQFYSFPSTFGGGTKVEIK
VH: B1 VH
B3: Hab015VL4VH5a-hFc (scFv, part only; not given: VL-VH linker and human IgG1 Fc, V domains shown, not shown: another chain or arm of the molecule; a dimerising Fc or GST; small tags and cut ends)
VL: B1 VL
VH: B1 VH with A23V

biological target: human delta-like ligand 3 (DLL3) on SHP77 cells (human) (UniProt Q9NYJ7); assay: FACS on SHP77 cells
Sequence (Q9NYJ7 27-618, stated change not applied): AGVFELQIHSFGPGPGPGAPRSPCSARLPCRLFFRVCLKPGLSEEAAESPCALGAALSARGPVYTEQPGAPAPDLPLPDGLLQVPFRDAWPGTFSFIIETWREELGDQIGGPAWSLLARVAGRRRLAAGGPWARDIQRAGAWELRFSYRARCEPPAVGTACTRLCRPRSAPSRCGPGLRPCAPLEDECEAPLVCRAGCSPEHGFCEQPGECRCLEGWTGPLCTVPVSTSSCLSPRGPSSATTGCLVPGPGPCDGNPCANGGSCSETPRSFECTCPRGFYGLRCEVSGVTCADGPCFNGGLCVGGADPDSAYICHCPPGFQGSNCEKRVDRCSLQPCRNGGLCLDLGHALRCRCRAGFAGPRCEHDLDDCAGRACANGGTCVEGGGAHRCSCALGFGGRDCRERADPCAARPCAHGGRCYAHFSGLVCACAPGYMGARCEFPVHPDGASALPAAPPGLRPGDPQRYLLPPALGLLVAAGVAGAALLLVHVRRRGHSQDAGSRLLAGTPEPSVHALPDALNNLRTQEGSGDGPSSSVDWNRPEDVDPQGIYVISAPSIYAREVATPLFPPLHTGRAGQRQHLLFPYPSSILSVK

Compared with B1, B2 is higher in MFI at 0.00128 nM: 99 MFI for the first, 102 MFI for the second.

In the case of B3, the MFI at 0.00128 nM is reported as 100 MFI.

First: B1
Second: B2
The MFI at 0.0064 nM of the first is lower: 112 MFI for the first, 122 MFI for the second.

B3 showed an MFI at 0.0064 nM of 117 MFI.

First: B1
Second: B2
The MFI at 0.032 nM of the first is lower: 174 MFI for the first, 185 MFI for the second.

B3 gave an MFI at 0.032 nM of 179 MFI.

Going from B1 to B2, the MFI at 0.16 nM falls from 385 MFI to 343 MFI.

For B3, the MFI at 0.16 nM was 368 MFI.

First: B1
Second: B2
The MFI at 0.8 nM of the first is higher: 730 MFI for the first, 612 MFI for the second.

In the case of B3, the MFI at 0.8 nM is reported as 709 MFI.

Compared with B1, B2 is higher in MFI at 4 nM: 762 MFI for the first, 768 MFI for the second.

In the case of B3, the MFI at 4 nM is reported as 812 MFI.

Compared with B1, B2 is lower in MFI at 20 nM: 962 MFI for the first, 907 MFI for the second.

In the case of B3, the MFI at 20 nM is reported as 997 MFI.

Compared with B1, B2 is lower in MFI at 100 nM: 1240 MFI for the first, 1140 MFI for the second.

B3 was tested, and the MFI at 100 nM was 1250 MFI.

biological target: DLL3 endogenously expressed on NCI-H82 cells (UniProt Q9NYJ7); assay: FACS on NCI-H82 cells; antibody 4 nM
Sequence (Q9NYJ7 27-618): as the sequence (Q9NYJ7 27-618, stated change not applied) above

Compared with B1, B2 is lower in MFI: 1060 for the first, 867 for the second.

For B3, the MFI was 1030.

biological target: DLL3 endogenously expressed on NCI-H82 cells (UniProt Q9NYJ7); assay: FACS on NCI-H82 cells; antibody 20 nM

Compared with B1, B2 is lower in MFI: 1200 for the first, 1100 for the second.

B3 was tested, and the MFI was 1190.

biological target: DLL3 endogenously expressed on NCI-H82 cells (UniProt Q9NYJ7); assay: FACS on NCI-H82 cells; antibody 0.8 nM

Going from B1 to B2, the MFI falls from 993 to 811.

Binder B3 has an MFI of 942.

biological target: DLL3 endogenously expressed on NCI-H82 cells (UniProt Q9NYJ7); assay: FACS on NCI-H82 cells; antibody 100 nM

Compared with B1, B2 is lower in MFI: 1520 for the first, 1220 for the second.

B3 showed an MFI of 1510.

biological target: DLL3 endogenously expressed on NCI-H82 cells (UniProt Q9NYJ7); assay: FACS on NCI-H82 cells; antibody 0.16 nM

Compared with B1, B2 is lower in MFI: 489 for the first, 478 for the second.

B3 showed an MFI of 476.

biological target: human DLL3 protein expressed on CHO-K1 recombinant cells (human DLL3 extracellular segment fused to EpCAM transmembrane and intracellular regions) (human) (UniProt Q9NYJ7); assay: FACS, CHO-K1 hDLL3 cells, 4 nM antibody
Sequence (Q9NYJ7 other isoform, or with tags, fused parts or gaps limits assumed): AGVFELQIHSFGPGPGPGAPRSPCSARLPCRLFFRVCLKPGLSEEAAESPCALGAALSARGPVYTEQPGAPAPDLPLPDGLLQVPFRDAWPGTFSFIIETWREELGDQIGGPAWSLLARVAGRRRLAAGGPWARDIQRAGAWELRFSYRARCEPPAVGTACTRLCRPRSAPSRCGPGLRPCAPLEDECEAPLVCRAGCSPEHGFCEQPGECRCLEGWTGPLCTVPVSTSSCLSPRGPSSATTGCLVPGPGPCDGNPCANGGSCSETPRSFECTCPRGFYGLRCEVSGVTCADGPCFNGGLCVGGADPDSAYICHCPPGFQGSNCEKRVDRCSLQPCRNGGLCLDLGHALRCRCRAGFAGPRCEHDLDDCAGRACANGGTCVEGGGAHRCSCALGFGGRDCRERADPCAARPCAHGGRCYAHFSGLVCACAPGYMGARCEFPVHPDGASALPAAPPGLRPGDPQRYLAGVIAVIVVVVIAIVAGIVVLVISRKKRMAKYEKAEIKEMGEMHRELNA

First: B1
Second: B2
The MFI of the first is lower: 7920 MFI for the first, 10600 MFI for the second.

B3 gave an MFI of 10900 MFI.

biological target: mouse DLL3 on CHO-K1-mDLL3 cells (mouse) (UniProt O88516); assay: FACS, CHO-K1-mDLL3 cells, 4 nM antibody
Sequence (O88516 other isoform, or with tags, fused parts or gaps limits assumed): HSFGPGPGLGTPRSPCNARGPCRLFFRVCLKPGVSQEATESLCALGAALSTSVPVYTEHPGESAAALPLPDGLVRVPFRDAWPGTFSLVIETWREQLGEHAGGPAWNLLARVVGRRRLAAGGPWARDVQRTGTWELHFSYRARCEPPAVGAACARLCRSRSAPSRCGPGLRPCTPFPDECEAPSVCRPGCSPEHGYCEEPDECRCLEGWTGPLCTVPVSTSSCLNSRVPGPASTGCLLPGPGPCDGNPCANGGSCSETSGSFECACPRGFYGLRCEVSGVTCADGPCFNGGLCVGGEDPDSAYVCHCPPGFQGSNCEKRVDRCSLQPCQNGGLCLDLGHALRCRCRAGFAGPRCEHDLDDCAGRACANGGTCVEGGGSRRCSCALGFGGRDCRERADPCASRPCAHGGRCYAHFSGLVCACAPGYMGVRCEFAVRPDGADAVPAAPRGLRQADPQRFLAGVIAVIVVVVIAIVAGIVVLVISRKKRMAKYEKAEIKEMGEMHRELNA

First: B1
Second: B2
The MFI of the first is lower: 1040 MFI for the first, 1200 MFI for the second.

With B3 the MFI was 1210 MFI.

biological target: DLL3 endogenously expressed on NCI-H82 cells (UniProt Q9NYJ7); assay: FACS on NCI-H82 cells; antibody 0.032 nM

First: B1
Second: B2
The MFI of the first is lower: 213 for the first, 219 for the second.

In the case of B3, the MFI is reported as 212.

biological target: human DLL3 protein expressed on CHO-K1 recombinant cells (human DLL3 extracellular segment fused to EpCAM transmembrane and intracellular regions) (human) (UniProt Q9NYJ7); assay: FACS, CHO-K1 hDLL3 cells, 20 nM antibody

Going from B1 to B2, the MFI rises from 10600 MFI to 11800 MFI.

With B3 the MFI was 12000 MFI.

biological target: mouse DLL3 on CHO-K1-mDLL3 cells (mouse) (UniProt O88516); assay: FACS, CHO-K1-mDLL3 cells, 20 nM antibody

Compared with B1, B2 is higher in MFI: 1150 MFI for the first, 1290 MFI for the second.

Binder B3 has an MFI of 1420 MFI.

biological target: DLL3 endogenously expressed on NCI-H82 cells (UniProt Q9NYJ7); assay: FACS on NCI-H82 cells; antibody 0.0064 nM

B1 and B2 are the same in MFI: 137 for the first, 137 for the second.

B3 was tested, and the MFI was 135.

biological target: human DLL3 protein expressed on CHO-K1 recombinant cells (human DLL3 extracellular segment fused to EpCAM transmembrane and intracellular regions) (human) (UniProt Q9NYJ7); assay: FACS, CHO-K1 hDLL3 cells, 0.8 nM antibody

Compared with B1, B2 is lower in MFI: 5070 MFI for the first, 4310 MFI for the second.

Work on B3 yielded an MFI of 4390 MFI.

biological target: human DLL3 protein expressed on CHO-K1 recombinant cells (human DLL3 extracellular segment fused to EpCAM transmembrane and intracellular regions) (human) (UniProt Q9NYJ7); assay: FACS, CHO-K1 hDLL3 cells, 100 nM antibody

Going from B1 to B2, the MFI rises from 11400 MFI to 12000 MFI.

Work on B3 yielded an MFI of 12400 MFI.

biological target: mouse DLL3 on CHO-K1-mDLL3 cells (mouse) (UniProt O88516); assay: FACS, CHO-K1-mDLL3 cells, 0.8 nM antibody

First: B1
Second: B2
The MFI of the first is lower: 779 MFI for the first, 922 MFI for the second.

B3 gave an MFI of 875 MFI.

biological target: mouse DLL3 on CHO-K1-mDLL3 cells (mouse) (UniProt O88516); assay: FACS, CHO-K1-mDLL3 cells, 100 nM antibody

Compared with B1, B2 is higher in MFI: 1450 MFI for the first, 1550 MFI for the second.

B3 gave an MFI of 1530 MFI.

biological target: DLL3 endogenously expressed on NCI-H82 cells (UniProt Q9NYJ7); assay: FACS on NCI-H82 cells; antibody 0.00128 nM

B1 and B2 are the same in MFI: 118 for the first, 118 for the second.

Binder B3 has an MFI of 118.

biological target: human DLL3 protein expressed on CHO-K1 recombinant cells (human DLL3 extracellular segment fused to EpCAM transmembrane and intracellular regions) (human) (UniProt Q9NYJ7); assay: FACS, CHO-K1 hDLL3 cells, 0.16 nM antibody

Going from B1 to B2, the MFI falls from 941 MFI to 936 MFI.

B3 showed an MFI of 870 MFI.

biological target: mouse DLL3 on CHO-K1-mDLL3 cells (mouse) (UniProt O88516); assay: FACS, CHO-K1-mDLL3 cells, 0.16 nM antibody

Going from B1 to B2, the MFI rises from 339 MFI to 393 MFI.

B3 showed an MFI of 350 MFI.

biological target: human DLL3 protein expressed on CHO-K1 recombinant cells (human DLL3 extracellular segment fused to EpCAM transmembrane and intracellular regions) (human) (UniProt Q9NYJ7); assay: FACS, CHO-K1 hDLL3 cells, 0.032 nM antibody

First: B1
Second: B2
The MFI of the first is lower: 294 MFI for the first, 330 MFI for the second.

B3 showed an MFI of 283 MFI.

biological target: monkey DLL3 on CHO-K1-cyno DLL3 cells (cynomolgus monkey); assay: FACS, CHO-K1-cyno DLL3 cells, 4 nM antibody
Sequence (chain, as listed by the source limits assumed): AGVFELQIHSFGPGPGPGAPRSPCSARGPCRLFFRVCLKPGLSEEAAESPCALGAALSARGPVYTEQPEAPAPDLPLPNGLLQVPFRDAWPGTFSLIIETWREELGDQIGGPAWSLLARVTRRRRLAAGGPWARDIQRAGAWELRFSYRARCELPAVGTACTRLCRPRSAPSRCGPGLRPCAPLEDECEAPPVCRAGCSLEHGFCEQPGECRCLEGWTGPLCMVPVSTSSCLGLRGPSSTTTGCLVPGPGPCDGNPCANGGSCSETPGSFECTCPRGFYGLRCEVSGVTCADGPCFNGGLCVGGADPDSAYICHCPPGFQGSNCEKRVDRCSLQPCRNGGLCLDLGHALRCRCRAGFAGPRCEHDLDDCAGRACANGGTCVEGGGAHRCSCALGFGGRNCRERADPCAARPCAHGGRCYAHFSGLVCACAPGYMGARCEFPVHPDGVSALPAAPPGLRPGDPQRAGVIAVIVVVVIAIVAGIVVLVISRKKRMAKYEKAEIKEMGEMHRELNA

Compared with B1, B2 is higher in MFI: 5910 MFI for the first, 6660 MFI for the second.

B3 was tested, and the MFI was 6520 MFI.

biological target: mouse DLL3 on CHO-K1-mDLL3 cells (mouse) (UniProt O88516); assay: FACS, CHO-K1-mDLL3 cells, 0.032 nM antibody

First: B1
Second: B2
The MFI of the first is lower: 172 MFI for the first, 195 MFI for the second.

B3 was tested, and the MFI was 170 MFI.

biological target: human DLL3 protein expressed on CHO-K1 recombinant cells (human DLL3 extracellular segment fused to EpCAM transmembrane and intracellular regions) (human) (UniProt Q9NYJ7); assay: FACS, CHO-K1 hDLL3 cells, 0.0064 nM antibody

Going from B1 to B2, the MFI rises from 152 MFI to 160 MFI.

Binder B3 has an MFI of 150 MFI.

biological target: monkey DLL3 on CHO-K1-cyno DLL3 cells (cynomolgus monkey); assay: FACS, CHO-K1-cyno DLL3 cells, 20 nM antibody

First: B1
Second: B2
The MFI of the first is lower: 6720 MFI for the first, 7040 MFI for the second.

B3 was tested, and the MFI was 7180 MFI.

biological target: mouse DLL3 on CHO-K1-mDLL3 cells (mouse) (UniProt O88516); assay: FACS, CHO-K1-mDLL3 cells, 0.0064 nM antibody

Compared with B1, B2 is higher in MFI: 123 MFI for the first, 131 MFI for the second.

Binder B3 has an MFI of 126 MFI.

biological target: human DLL3 protein expressed on CHO-K1 recombinant cells (human DLL3 extracellular segment fused to EpCAM transmembrane and intracellular regions) (human) (UniProt Q9NYJ7); assay: FACS, CHO-K1 hDLL3 cells, 0.00128 nM antibody

Going from B1 to B2, the MFI rises from 122 MFI to 129 MFI.

Binder B3 has an MFI of 122 MFI.

biological target: monkey DLL3 on CHO-K1-cyno DLL3 cells (cynomolgus monkey); assay: FACS, CHO-K1-cyno DLL3 cells, 0.8 nM antibody

Going from B1 to B2, the MFI falls from 4470 MFI to 4340 MFI.

In the case of B3, the MFI is reported as 4480 MFI.

biological target: monkey DLL3 on CHO-K1-cyno DLL3 cells (cynomolgus monkey); assay: FACS, CHO-K1-cyno DLL3 cells, 100 nM antibody

First: B1
Second: B2
The MFI of the first is higher: 7590 MFI for the first, 7380 MFI for the second.

For B3, the MFI was 7610 MFI.

biological target: mouse DLL3 on CHO-K1-mDLL3 cells (mouse) (UniProt O88516); assay: FACS, CHO-K1-mDLL3 cells, 0.00128 nM antibody

First: B1
Second: B2
The MFI of the first is lower: 117 MFI for the first, 121 MFI for the second.

In the case of B3, the MFI is reported as 117 MFI.

biological target: monkey DLL3 on CHO-K1-cyno DLL3 cells (cynomolgus monkey); assay: FACS, CHO-K1-cyno DLL3 cells, 0.16 nM antibody

Compared with B1, B2 is lower in MFI: 1240 MFI for the first, 1190 MFI for the second.

B3 showed an MFI of 1180 MFI.

biological target: monkey DLL3 on CHO-K1-cyno DLL3 cells (cynomolgus monkey); assay: FACS, CHO-K1-cyno DLL3 cells, 0.032 nM antibody

First: B1
Second: B2
The MFI of the first is lower: 399 MFI for the first, 415 MFI for the second.

B3 showed an MFI of 377 MFI.

biological target: monkey DLL3 on CHO-K1-cyno DLL3 cells (cynomolgus monkey); assay: FACS, CHO-K1-cyno DLL3 cells, 0.0064 nM antibody

Going from B1 to B2, the MFI rises from 168 MFI to 178 MFI.

Binder B3 has an MFI of 164 MFI.

biological target: monkey DLL3 on CHO-K1-cyno DLL3 cells (cynomolgus monkey); assay: FACS, CHO-K1-cyno DLL3 cells, 0.00128 nM antibody

First: B1
Second: B2
The MFI of the first is lower: 123 MFI for the first, 131 MFI for the second.

B3 was tested, and the MFI was 122 MFI.

biological target: human DLL1 protein (Acro, Cat. No. DL1-H52H8) (human) (UniProt O00548); assay: ELISA, coated hDLL1; maximum over 0.1, 1, 10, 100 nM antibody
Sequence (O00548 18-540 limits assumed): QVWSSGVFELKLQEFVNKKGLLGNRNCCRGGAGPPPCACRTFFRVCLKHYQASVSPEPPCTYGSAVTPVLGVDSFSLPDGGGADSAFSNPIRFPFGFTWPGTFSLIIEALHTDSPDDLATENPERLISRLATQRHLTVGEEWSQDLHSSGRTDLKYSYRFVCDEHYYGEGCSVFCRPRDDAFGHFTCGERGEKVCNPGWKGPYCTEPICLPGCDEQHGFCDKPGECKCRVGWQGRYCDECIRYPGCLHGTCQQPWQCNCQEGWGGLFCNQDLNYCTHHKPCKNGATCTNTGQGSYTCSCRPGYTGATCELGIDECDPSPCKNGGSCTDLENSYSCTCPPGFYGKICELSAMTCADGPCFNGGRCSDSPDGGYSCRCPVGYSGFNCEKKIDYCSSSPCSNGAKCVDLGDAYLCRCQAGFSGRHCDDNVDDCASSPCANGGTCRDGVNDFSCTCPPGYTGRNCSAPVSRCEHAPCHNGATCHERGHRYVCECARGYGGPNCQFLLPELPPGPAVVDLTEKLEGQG

Compared with B1, B2 is higher in Emax of OD450 nm binding value: 0.44 OD450 nm for the first, 0.47 OD450 nm for the second.

For B3, the Emax of OD450 nm binding value was 0.42 OD450 nm.

biological target: human DLL4 protein (Acro, Cat. No. DL4-H5227) (human) (UniProt Q9NR61); assay: ELISA, coated hDLL4; maximum over 0.1, 1, 10, 100 nM antibody
Sequence (Q9NR61 27-524 limits assumed): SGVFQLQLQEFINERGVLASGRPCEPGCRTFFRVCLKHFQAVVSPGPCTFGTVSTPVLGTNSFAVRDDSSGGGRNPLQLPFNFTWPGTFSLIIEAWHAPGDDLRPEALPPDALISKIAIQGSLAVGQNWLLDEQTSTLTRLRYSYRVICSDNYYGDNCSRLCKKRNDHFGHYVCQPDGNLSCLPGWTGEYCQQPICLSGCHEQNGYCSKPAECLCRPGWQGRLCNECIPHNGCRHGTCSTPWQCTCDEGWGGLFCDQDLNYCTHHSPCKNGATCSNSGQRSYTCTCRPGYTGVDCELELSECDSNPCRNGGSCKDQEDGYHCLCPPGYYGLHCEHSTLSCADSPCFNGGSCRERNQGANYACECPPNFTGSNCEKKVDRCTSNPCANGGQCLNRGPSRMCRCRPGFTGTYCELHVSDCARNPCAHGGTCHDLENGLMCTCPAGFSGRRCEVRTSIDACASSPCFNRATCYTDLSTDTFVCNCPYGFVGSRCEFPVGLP

Compared with B1, B2 is higher in Emax of OD450 nm binding value: 0.65 OD450 nm for the first, 0.71 OD450 nm for the second.

B3 gave an Emax of OD450 nm binding value of 0.71 OD450 nm.
